Experimental data from patent publication US5716934A, “Eck receptor ligands” (Amgen Inc., priority 1995, dated 1998).

Legend:
colon crypt cells = test: Colon crypt assay; type: cell-based, mouse; conditions: bFGF 60 ng/ml, EBP 500 ng/ml
Procedure: Colons from five (BDF) mice were removed and crypts isolated using a non enzymatic (EDTA) extraction method. Briefly, colons are washed and allowed to sit for 20 min. in a solution of PBS containing 0.04% sodium hypochlorite. Crypts are isolated by incubating the tissue for 1 hour at 37° C. in a solution of PBS containing 3 mM EDTA and 0.5 mM DTT. Crypts are then subjected to pancreatin digestion (0.2% in PBS) for 90 min. at 37° C. in order to obtain a single cell suspension. Cells are washed in PBS, counted and viability determined by trypan blue exclusion (85% in this experiment). Cells are then plated in a top layer of 0.37% Sigma low melt agar onto a bottom layer of 0.5% agar. The RPMI media used in the agar includes the presence of 1×ITS (insulin, transferrin, and selenium, Gibco). Incubations were done in the presence of 1% fetal calf serum (FCS) and the indicated growth factors at the following concentration: TGFα, 50 ng/ml; bFGF, 60 ng/ml; EBP, 500 ng/ml. Control incubations lacked growth factors and/or FCS. Each of the various culture conditions was performed in triplicate and scored every several days.

[1] = test system: immobilized soluble extracellular domain of eck; test: Stability of eck binding activity of formulated EBP (BIAcore); type: physicochemical, human
Procedure: FIG. 7. Binding of CHO-derived EBP in various detergent formulations to immobilized eck receptor as measured by BIAcore. Purified EBP was diluted to 100 μg/ml in PBS in the presence or absence of detergent and incubated for 2 hrs. at 3° C. Protein samples were diluted to the concentrations indicated in the figure and tested for eck receptor binding.
Measuring the ability of EBP to bind to the immobilized soluble extracellular domain of eck using BIAcore, it was determined that dilute solutions of purified EBP rapidly lost the ability to bind to the eck receptor unless formulated with a protective agent such as a detergent. Recombinant CHO EBP diluted into PBS to 100 μg/ml and incubated for 2 hours at […] lost approximately 50% of its eck binding activity. […] (see FIG. 7).

hepatocytes = test: 3H-thymidine incorporation in primary hepatocyte cultures; type: cell-based; conditions: EBP at 20 ng/ml, aFGF at 20 ng/ml, 24 to 48 hours, serum-free
Procedure: Hepatocytes were isolated by the in situ two step collagenase perfusion technique described by Seglen (Methods in Toxicol., Vol. 1A, 231-243 (1993). Briefly, the perfused livers were dispersed in ice cold Hank's buffer, filtered through a nylon mesh, and hepatocytes separated from nonparenchymal cells by repeated centrifugation at 50×g. The hepatocytes were determined to be greater than 85% viable by trypan blue exclusion. The hepatocytes were cultured on plates coated with rat tail collagen and plated in Williams E containing 5% FCS, 10^-7 M insulin, 10^-8 M dexamethason, glutamine, penicillin and streptomycin.
Cells were allowed to attach for 3-4 hours in serum containing media and then transferred to serum-free media. The appropriate concentrations of EBP or other growth factors were added and the cells were incubated for 24 to 48 hours in the presence of ^3 H-thymidine. After incubation, the extent of ^3 H-thymidine incorporation into cells was determined. The growth factors tested were keratinocyte growth factor (KGF) at 10 ng/ml, acidic FGF (aFGF) at 20 ng/ml, and EBP at 20 ng/ml. […] In this particular experiment, the serum free value was unusually high (about 3-fold).

[2] = test system: extracellular domain of the kit receptor; test: BIAcore binding to surfaces activated with kit receptor extracellular domain
Text: SDS-PAGE analysis of the fractions from this column confirmed that EBP was co-eluted with the receptor binding activity.

[3] = test system: bone marrow suspensions from BDF mice; test: Murine bone marrow colony formation (hematopoiesis); type: cell-based, mouse
Procedure: Unfractionated bone marrow suspensions from BDF mice were plated into serum free culture medium (Iscove's modified Dulbecco's medium) in 0.3% agarose and incubated at 37° C., 5% CO2 for ten days at a cell concentration of 1×10^5 /ml in 96 well plates. Total volume per […] was 50 μl . EBP and other growth factors were added in the amounts indicated and colonies were scored at the tenth day of incubation.

EGF receptor = EGF receptor phosphorylation in LIM 2405 cells treated with EBP; type: cell-based, human

B1: EBP: eck receptor binding protein, polypeptide ligand of the eck receptor (B61 gene product, SEQ. ID. NO. 1); source form not specified at place (protein)
chain: MEFLWAPLLGLCCSLAAADRHTVFWNSSNPKFRNEDYTIHVQLNDYVDIICPHYEDHSVADAAMEQYILYLVEHEEYQLCQPQSKDQVRWQCNRPSAKHGPEKLSEKFQRFTPFTLGKEFKEGHSYYYISKPIHQHEDRCLRLKVTVSGKITHSPQAHVNPQEKRLAADDPEVRVLHSIGHSAAPRLFPLAWTVLLLPLLLLQTP
colon crypt cell clusters, overall observation (colon crypt cells): occasional large clusters | loss of eck binding activity when formulated in detergent ([1]; 1 mM CHAPS, 0.1% NP-40, 0.1% tween 20, 0.1% triton-X 100, or 0.1% tween 80): loss of activity can be avoided | stability of eck binding activity ([1]; 2-5 mg/ml in detergent solutions, 3° C.): stable for at least one week | stability of eck binding activity ([1]; 10-500 μg/ml, stored at -20° C. or multiple freeze thaw cycles): will lose activity | loss of eck binding activity when incubated with protein carriers ([1]; diluted EBP with carriers such as fetal calf serum): can also be avoided | amount of 3H-thymidine incorporation stimulated (hepatocytes): about the same as that induced by aFGF | binding to BIAcore surfaces activated with the extracellular domain of the kit receptor [2]: did not bind | stimulation of CFU-M or BFU-E/CFU-E ([3]; EBP alone): no stimulation | potentiation of murine IL-3 dependent CFU-C formation compared to IL-3 alone ([3]; EBP at 1 μg/ml with murine IL-3, colonies scored day 10): about 2 fold | phosphorylation of the EGF receptor (EGF receptor): does not result in spurious phosphorylation
